Reference: CN107793479A (SHANGHAI JIBEI BIOLOGICAL TECH CO LTD, dated 2018)
Numbering of substitutions follows the chain as printed.

T1: CD19抗原 (B lymphocyte antigen CD19) (human, UniProt P15391 20-291, limits assumed, biotin label in Examples 2-4 (site not stated))
T1 construct: also called CD19-his; CD19-his-biotin; not shown: his tag
T1 sequence (looked up): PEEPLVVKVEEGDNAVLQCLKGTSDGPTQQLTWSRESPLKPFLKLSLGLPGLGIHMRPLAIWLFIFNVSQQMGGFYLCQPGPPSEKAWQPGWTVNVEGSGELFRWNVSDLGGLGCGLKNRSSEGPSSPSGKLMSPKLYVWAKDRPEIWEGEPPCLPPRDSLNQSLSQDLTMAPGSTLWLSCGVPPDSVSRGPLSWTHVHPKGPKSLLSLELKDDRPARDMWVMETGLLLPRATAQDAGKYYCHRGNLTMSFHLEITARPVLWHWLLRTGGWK

B1: Combo-5 (scFv in periplasmic extract) (scFv)
scFv: EVKLQESGPGLVAPSQSLSVTCTVSGWSLEDYGVSWIRQSPRKGLEWLGGIIGSQTTYYLAGLKSRLTIIKDNSKSQVFLKMNSLQTDDTAIYYCAKHRYYGGSFDMDYWGQGTSVTVSSGGGGSGGGGSGGGGSDIQMTQTTSSLSASLGDRVTISCRASQDISKYLNWYQQKPDGTVKLLIYHTSRLHSGVPSRFSGSGSGTDYSLTISNLEQEDIATYFCQQGNTLPYTFGGGTKLEIT
notes: Soluble scFv in E. coli periplasmic extract (PPE), not purified
B2: Combo-6 (scFv in periplasmic extract) (scFv)
scFv: B1 scFv with G50V, I52W, Q55E, L60N, A61S, G62A
notes: as for B1
B3: Combo-8 (scFv in periplasmic extract) (scFv)
scFv: B1 scFv with G50V, I52W, Q55E, L60N, A61S, G62A, R99W, D106A
notes: as for B1
B4: Combo-14 (scFv in periplasmic extract) (scFv)
scFv: EVKLQESGPGLVAPSQSLSVTCTVSGVSLPDYGVSWIRQSPRKGLEWLGVIWGSETTYYNSALKSRLTIIKDNSKSQVFLKMNSLQTDDTAIYYCAKHYYYGGSYAMDYWGQGTSVTVSSGGGGSGGGGSGGGGSDIQMTQTTSSLSASLGDRVTISCRASMDIKKYLNWYQQKPDGTVKLLIYHTSRLHSGVPSRFSGSGSGTDYSLTISNLEQEDIATYFCQQGKKAPLTFGGGTKLEIT
notes: as for B1
B5: Combo-13 (scFv in periplasmic extract) (scFv)
scFv: B4 scFv with H185Q, H190A, S191W
notes: as for B1
B6: Combo-7 (scFv in periplasmic extract) (scFv)
scFv: B1 scFv with R99W, D106A
notes: as for B1
B7: Combo-9 (scFv in periplasmic extract) (scFv)
scFv: B4 scFv with S40P, M162Q, D163P, K165R, K166R, H185Q, H190A, S191W
notes: as for B1
B8: Combo-10 (scFv in periplasmic extract) (scFv)
scFv: B4 scFv with S40P, M162Q, D163P, K165R, K166R
notes: as for B1

These binders were tested against T1, CD19抗原 (B lymphocyte antigen CD19) (assay: ELISA of periplasmic extract dilutions on a CD19-coated plate, OD450).

Binding result, binds:
B1, B2, B3, B4, B5, B6, B7, B8
